Experimental data taken from patent US20160130351A1 (NOVIMMUNE S A, published 2016).

How the values were obtained:
[1] = biological target: T1, soluble cynomolgus monkey IL-6R (cynomolgus monkey, UniProt A0A2K5WN54 60-396); assay: SPR (Biacore 2000), mAb captured on anti-human IgG Fc, analyte in solution, 25 C, 1:1 Langmuir
T1 construct: extracellular domain; also called scyIL-6R; soluble cynomolgus monkey IL-6 Receptor; not shown: C-terminal His- or Avi-Tag
T1 sequence: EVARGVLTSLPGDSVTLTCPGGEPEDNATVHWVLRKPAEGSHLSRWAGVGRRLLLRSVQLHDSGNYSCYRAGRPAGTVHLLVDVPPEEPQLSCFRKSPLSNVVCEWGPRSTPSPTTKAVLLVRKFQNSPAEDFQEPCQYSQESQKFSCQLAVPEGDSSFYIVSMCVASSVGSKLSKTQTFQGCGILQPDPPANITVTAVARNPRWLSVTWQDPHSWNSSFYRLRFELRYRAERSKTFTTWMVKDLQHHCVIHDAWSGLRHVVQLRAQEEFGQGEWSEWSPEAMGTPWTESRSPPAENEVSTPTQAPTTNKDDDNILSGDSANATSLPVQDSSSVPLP
Method: (§1) A CM5 Biacore chip was used and 1640 RU (response units) of an anti-human IgG Fc (Biacore AB, Uppsala, Sweden) was immobilized by EDC/NHS chemistry. […] The surface was regenerated after each cycle by injection of 3M magnesium chloride at 20 μL/min, for 30 s followed by lmin of stabilization time in HBS-EP buffer (Biacore AB, Uppsala, Sweden). Binding was measured by passing analytes carrier-free soluble human IL-6R (shuIL6-R; R&D), soluble human IL-6Rc (shuIL-6Rc) and soluble cynomolgus monkey IL-6R (scyIL-6R) in duplicates at the following concentrations: 100 nM, 50 nM, 25 nM, 12.5 nM, 6.25 nM and 0nM. All solutions were diluted in HBS-EP buffer. Injection was performed at 50 μl/min for 3 min followed by 12 min of dissociation time and the temperature was set at 25° C.

[2] = biological target: T2, carrier-free soluble human IL-6R (R&D) (human, UniProt P08887 20-365); assay: as above
T2 construct: extracellular domain; also called shuIL-6R; shuIL6-R
T2 sequence (looked up): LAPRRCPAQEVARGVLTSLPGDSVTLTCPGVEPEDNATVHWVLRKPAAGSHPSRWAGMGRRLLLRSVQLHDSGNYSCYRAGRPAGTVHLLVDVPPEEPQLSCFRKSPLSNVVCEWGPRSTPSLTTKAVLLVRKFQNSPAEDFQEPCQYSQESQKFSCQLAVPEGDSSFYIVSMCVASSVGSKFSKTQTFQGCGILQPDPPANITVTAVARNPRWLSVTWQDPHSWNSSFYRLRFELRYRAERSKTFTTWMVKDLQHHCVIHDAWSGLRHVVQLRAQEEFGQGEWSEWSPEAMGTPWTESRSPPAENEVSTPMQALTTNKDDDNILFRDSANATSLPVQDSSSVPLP
Method: as §1

[3] = biological target: T3, membrane-bound human IL-6R (human, UniProt P08887 20-468); assay: flow cytometry on HepG2 cells, goat anti-human IgG Alexa Fluor 647
T3 construct: whole, on cells; also called mIL-6R; membrane IL-6R
T3 sequence (looked up): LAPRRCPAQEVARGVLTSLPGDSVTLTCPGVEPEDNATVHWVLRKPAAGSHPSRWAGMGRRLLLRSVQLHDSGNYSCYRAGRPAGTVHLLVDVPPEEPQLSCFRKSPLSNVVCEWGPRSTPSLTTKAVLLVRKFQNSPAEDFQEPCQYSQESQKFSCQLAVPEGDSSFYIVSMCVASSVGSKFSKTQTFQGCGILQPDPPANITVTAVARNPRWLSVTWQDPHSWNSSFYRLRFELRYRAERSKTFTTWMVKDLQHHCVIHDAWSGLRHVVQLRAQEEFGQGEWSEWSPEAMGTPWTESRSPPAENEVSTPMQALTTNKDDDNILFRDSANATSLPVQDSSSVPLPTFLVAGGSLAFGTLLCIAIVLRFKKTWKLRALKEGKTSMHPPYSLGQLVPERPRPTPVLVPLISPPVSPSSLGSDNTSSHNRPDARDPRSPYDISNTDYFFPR
Method: Cell surface staining is performed on HepG2 cells with different doses of mAbs. […] Each experiment was performed in triplicates.

[4] = biological target: T4, FULLY MOUSE IL-6R (mouse, UniProt P22272); assay: flow cytometry on PEAK cells displaying the IL-6R variant, goat anti-human IgG Alexa Fluor 647
T4 construct: also called chimeric receptor #5
T4 sequence (receptor chain, looked up): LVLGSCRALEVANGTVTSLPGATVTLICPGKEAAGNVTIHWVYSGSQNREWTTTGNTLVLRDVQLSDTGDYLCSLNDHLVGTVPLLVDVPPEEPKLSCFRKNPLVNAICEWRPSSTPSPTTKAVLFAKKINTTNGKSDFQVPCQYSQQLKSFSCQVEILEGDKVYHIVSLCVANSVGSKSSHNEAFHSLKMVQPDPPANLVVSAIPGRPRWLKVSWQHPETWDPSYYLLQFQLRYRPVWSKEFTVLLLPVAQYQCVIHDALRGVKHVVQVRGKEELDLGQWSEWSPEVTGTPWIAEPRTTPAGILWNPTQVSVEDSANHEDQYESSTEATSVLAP
Excerpt: An overlap extension PCR strategy was used to generate coding sequences specifying huIL-6R/mouseIL-6R chimeric proteins (FIG. 6A) and mouse IL-6R proteins containing human amino acid substitutions in D3 domains (FIG. 6B). Partially overlapping mutagenic oligonucleotide primers were used for PCR amplification of N- and C-terminal sequences on either side of huIL-6R/mouse IL-6R junctions or substituted regions, followed by gel isolation and annealing of the denatured PCR products. Full length PCR products were then digested by EcoRI and BglII and ligated into a pDISPLAY™ vector (Invitrogen). PEAK cells were grown in DMEM medium supplemented with 10% fetal calf serum and 4 mM L-glutamine. Cells were plated 12 to 24 h before transfection to have 40-50% confluency in 6 well plates. Transfections of pDISPLAY™ vectors (Invitrogen) were carried out by lipofection using TransIT® LT1 reagent (MirusBio) according manufacturer's specifications. Cells were grown for 48 h before harvesting and analysis by flow cytometry.
Cell surface staining was performed on PEAK cells displaying each variant of IL-6R and analyzed by flow cytometry (FIG. 6B-D). Cell surface expression of each chimeric IL-6R was assessed using an anti-human-CD126 PE or an anti-mouse CD126-PE antibody (BD Pharmingen).

[5] = biological target: soluble human IL-6Rc (shuIL-6Rc) recombinant fusion protein of IL-6R and IL-6 (human) (UniProt P08887); assay: SPR (Biacore 2000), mAb captured on anti-human IgG Fc, analyte in solution, 25 C, 1:1 Langmuir

Kd [1]: 2.04 nM | koff [1]: 0.000215 s⁻¹ | kon [1]: 106000 M⁻¹ s⁻¹ | Kd [2]: 0.0567 nM | koff [2]: 7.53e-05 s⁻¹ | kon [2]: 1.33e+06 M⁻¹ s⁻¹ | EC50 (read off the curve) [3]: ~0.2 µg/mL | binding result [4]: no binding | Kd [5]: 5.64 nM | koff [5]: 0.000243 s⁻¹ | kon [5]: 43100 M⁻¹ s⁻¹
B1: NI-1201 wild type (NI-1201-WT) antibody (antibody, V domains shown)
VH: QVQLVQSGAEVKKPGSSVKVSCKASGGTFSSYAISWVRQAPGQGLEWMGGIIPLFDTTKYAQQFQGRVTITADESTSTAYMELSSLRSEDTAVFYCARDRDILTDYYPMGGMDVWGQGTTVTVSS
VL: AIQLTQSPSSLSASVGDRVTITCRASQGISSVLAWYQQKPGKAPKLLIYDASSLESGVPSRFSGSGSGTDFTLTISSLQPEDFATYYCQQSNSYPLTFGGGTKVEIKR
notes: Fully human monoclonal IgG (captured by anti-human IgG Fc in Biacore); also called 39B9 VL1
